Assay results from US20130052162A1, “BOOSTING IMMUNE DEFENSE BY UPREGULATING CCAAT/ENHANCER BINDING PROTEIN EPSILON” (CEDARS-SINAI MEDICAL CENTER, priority 2010, published 2013).
“Also recorded” adds a separate entry of the source.

B1: IFN-γ: recombinant murine IFN-γ (Shenandoah Biotechnology) (protein, UniProt P01580 23-155, looked up)
Interferon gamma: HGTVIESLESLNNYFNSSGIDVEEKSLFLDIWRNWQKDGDMKILQSQIISFYLRLFEVLKDNQAISNNISVIESHLITTFFSNSKAKKDAFMSIAKFEVNNPQVQRQAFNELIRVVHQLLPESSLRKRKRSRC

What was measured:
[1] = system: S. aureus (strains Pig1 and LAC); assay: Effect of zinc on growth and viability of S. aureus; type: cell-based, Staphylococcus aureus; conditions: 100 μM Zn2SO4, RPMI 1640 with 10% FBS, 24 h
Procedure: To assess whether zinc, at the concentrations used in the inventors' study, adversely affect the growth and viability of S. aureus (strains Pig1 and LAC), bacteria (˜5×10^5 CFU) were incubated with or without 100 μM zinc (Zn2 SO4) in RPMI 1640 with 10% FBS. The assay was performed in triplicate in 96-well plates for 24 h at 37° C. at which time ten-fold serial dilutions were plated on THA for enumeration of CFU.

S. aureus [2] = assay: S. aureus survival assay in BMDM treated with IFN-γ; type: cell-based, mouse; conditions: C/EBPε−/− BMDM, IFN-γ 48 h before infection, 24 h
Procedure: Macrophages were infected with S. aureus at the specified MOI. […] After 30 min, macrophages were washed three times with pre-warmed media to remove extracellular bacteria. Gentamicin (Invitrogen, Carlsbad, Calif., USA) was then added to each well at a final concentration of 400 μg/mL for 1.5 h. At this time, the concentration of gentamicin in the media was reduced to 100 μg/mL for the remainder of the assay. At 24 h post infection, cells were washed three times with PBS, then 100 μl of 0.02% Triton X-100 in water was added to each well and pipetted vigorously 10× to promote macrophage lysis and release intracellular bacteria. Ten-fold serial dilutions of each cell lysate were immediately plated onto THA, and CFU were enumerated following overnight incubation at 37° C. Data are representative of at least two independent experiments performed in triplicate.
BMDM harvested from WT and C/EBPε^−/− mice were seeded at the required density of 5×10^4 cells per well (100 μl) in 96-well tissue culture plates. Macrophages were then activated with IFN-γ (200 U/mL) for 48 h prior to infection. Activated and control non-activated macrophages were infected with S. aureus at the specified MOI. The macrophage survival assay was then performed as described for U937 macrophages.

S. aureus [3] = assay: Murine skin (s.c.) S. aureus infection with IFN-γ treatment; type: in vivo, mouse; conditions: C/EBPε−/− mice, 5,000 U i.p. daily
Procedure: S. aureus was pelleted, washed twice and resuspended in PBS (Mediatech, Manassas, Va., USA) mixed 1:1 with sterile Cytodex beads (GE Healthcare, Pasadena, Calif., USA) at the specified inoculum, following an established protocol for generating localized S. aureus and S. pyogenes subcutaneous (s.c.) infection^41,42. One hundred microliters of two separate inocula, as specified, were administered by s.c. injection into the respective two flanks of each mouse. Injections were performed with careful visualization of the needle to assure that they were not intramuscular. Serial dilutions were prepared and plated to confirm the actual inocula used.
Baseline weights of mice were recorded prior to infection and daily thereafter until sacrifice. Lesions were measured with a caliper, daily throughout infection. Lesions were defined by darkened areas of dermonecrosis. The inventors' method to measure lesion size has been previously reported^43. Briefly, skin lesions were quantified by multiplying the length and width of the lesion. Irregularly-shaped lesions were broken down into smaller symmetrical pieces, and each piece was measured by the same method.
Following euthanization of mice on the specified day, infected skin lesion tissue was aseptically excised, and thoroughly homogenized and mixed in 1 mL of PBS as previously shown^43. Ten-fold serial dilutions of the homogenates were plated on THA for CFU determination. The spleen and both kidneys were aseptically removed from each animal and processed in the same way. When required, the appropriate homogenized suspensions (skin lesions) were centrifuged at 15,000 g for 10 min and supernatants stored at −80° C. for subsequent analysis by ELISA.
Mice were infected with S. aureus by s.c. injection as already described. One hundred microliters of two separate specified inocula were injected into the respective two flanks of WT and C/EBPε^−/− mice.
C/EBPε^−/− mice were treated with recombinant murine IFN-γ (Shenandoah Biotechnology, Warwick, Pa., USA) 48 h prior to infection. IFN-γ was administered i.p. (0.5 mL in PBS) at a dose of 5,000 U. Control WT and C/EBPε^−/− mice received equal amounts of PBS. The respective mice continued to receive IFN-γ or PBS every 24 h until they were euthanized.
Mouse weight and lesion size were recorded daily as already described. At day 4 p.i., mice were euthanized, and the CFU from skin lesions, spleen, and kidneys were determined.

Molecule | effect on viability and growth of S. aureus [1] | effect on viability and growth of S. aureus ([1]; listed as Zinc) | S. aureus CFU recovered from / killing by macrophages (S. aureus [2]) | CFU in skin lesions, spleen and kidneys vs PBS (S. aureus [3]) | area of dermonecrosis (S. aureus [3]) | changes in body weight vs PBS-treated WT control (S. aureus [3]) | overall lesion size / area vs PBS (S. aureus [3])
O=S(=O)([O-])[O-].[Zn+2] [zinc] | no effect; also recorded: does not have direct anti-staphylococcal activity | no effect | – | – | – | – | –
B1 | – | – | reduced the number of S. aureus CFU; also recorded: improved killing of S. aureus | lower numbers of bacteria in the skin lesions; also recorded: significantly lower CFU | dramatically ameliorated | similar | no effect on the overall lesion area; also recorded: no effect on overall lesion size
